Measured values published in patent US20230212288A1 (published 2023).

Target: human CD3 receptor complex (human, UniProt P07766 23-207; P09693 23-182; P04234 22-171)
Assay: cell-based or functional assay

Sequence of human CD3 receptor complex (P07766 23-207, chain 1 of 3): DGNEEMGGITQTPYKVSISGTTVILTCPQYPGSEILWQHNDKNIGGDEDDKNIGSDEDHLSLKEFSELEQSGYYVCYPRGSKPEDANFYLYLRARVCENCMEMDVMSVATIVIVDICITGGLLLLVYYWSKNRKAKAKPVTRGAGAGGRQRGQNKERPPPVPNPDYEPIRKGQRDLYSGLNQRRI
Sequence of human CD3 receptor complex (P09693 23-182, chain 2 of 3): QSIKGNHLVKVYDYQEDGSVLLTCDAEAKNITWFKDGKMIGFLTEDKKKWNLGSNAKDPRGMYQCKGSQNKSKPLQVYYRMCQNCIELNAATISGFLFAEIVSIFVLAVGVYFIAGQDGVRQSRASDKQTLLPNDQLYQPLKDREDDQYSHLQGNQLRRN
Sequence of human CD3 receptor complex (P04234 22-171, chain 3 of 3): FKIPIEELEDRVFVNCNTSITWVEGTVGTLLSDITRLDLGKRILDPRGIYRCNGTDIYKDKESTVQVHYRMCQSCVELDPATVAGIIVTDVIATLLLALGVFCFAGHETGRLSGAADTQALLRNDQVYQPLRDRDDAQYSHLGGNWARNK

B1: 400_03_H07 (bispecific antibody)
chain: DIQLTQTPASLAVSLGQRATISCKASQSVDYDGDSYLNWYQQIPGQPPKLLIYDASNLVSGIPPRFSGSGSGTDFTLNIHPVEKVDAATYHCQQSTEDPWTFGGGTKLEIKGGSGGAMAQVQLVESGGGVVQPGRSLRLSCAASGFTFSSYSMNWVRQAPGKGLEWVSSISSSSSYIYYADSVKGRFTISRDNAKNSLYLQMNSLRAEDTAVYYCARSGIAAAGFDYWGQGTLVTVSSGGGGSGGGGSGGGASNFMLTQPHSVSESPGKTVTISCARSSGSIASNYVQWYQQRPGSSPTTVIYEDNRRPSGVPDRFSGSFDSSSNSASLTISGLKTEDEADYYCQSYDSSNRVFGGGTKLTVLGQPAAAGGGGSQVQLQQSGAELVRPGSSVKISCKASGYAFSSYWMNWVKQRPGQGLEWIGQIWPGDGDTNYNGKFKGKATLTADESSSTAYMQLSSLASEDSAVYFCARRETTTVGRYYYAMDYWGQGTSVTVSSASAAVECPPCPAPPVAGPSVFLFPPKPKDTLMISRTPEVTCVVVDVSHEDPEVQFNWYVDGVEVHNAKTKPREEQFNSTFRVVSVLTVVHQDWLNGKEYKCKVSNKGLPAPIEKTISKTKGQPREPQVYTLPPSREEMTKNQVSLTCLVKGFYPSDIAVEWESNGQPENNYKTTPPMLDSDGSFFLYSKLTVDKSRWQQGNVFSCSVMHEALHNHYTQKSLSLSPGK
B1 was tested, and the “Activity (EC50 for activation of Jurkat line cells, pM)” value (shortened to “Activity”) was 328 pM.

B2: 309_04_A04 (bispecific antibody)
chain: DIQLTQTPASLAVSLGQRATISCKASQSVDYDGDSYLNWYQQIPGQPPKLLIYDASNLVSGIPPRFSGSGSGTDFTLNIHPVEKVDAATYHCQQSTEDPWTFGGGTKLEIKGGSGGAMAQVQLQQWGAGLLKPSETLSLTCAVYGGSFSGYYWSWIRQPPGKGLEWIGEISRSGTTNYNSSLKSRVTISVDTSKNQFSLKLSSVTAADTAVYYCARATRNGVFDYWGQGTLVTVSSGGGGSGGGGSGGGASNFMLTQPHSVSESPGKTVTISCTRSSGSIASNYVQWYQQRPGSAPSTVIYEDNQRPSGVPDRFSGSIDSSSNSASLTISGLKTEDEADYYCQSYDSGVVFGGGTKLTVLGQPAAAGGGGSQVQLQQSGAELVRPGSSVKISCKASGYAFSSYWMNWVKQRPGQGLEWIGQIWPGDGDTNYNGKFKGKATLTADESSSTAYMQLSSLASEDSAVYFCARRETTTVGRYYYAMDYWGQGTSVTVSSASAAVECPPCPAPPVAGPSVFLFPPKPKDTLMISRTPEVTCVVVDVSHEDPEVQFNWYVDGVEVHNAKTKPREEQFNSTFRVVSVLTVVHQDWLNGKEYKCKVSNKGLPAPIEKTISKTKGQPREPQVYTLPPSREEMTKNQVSLTCLVKGFYPSDIAVEWESNGQPENNYKTTPPMLDSDGSFFLYSKLTVDKSRWQQGNVFSCSVMHEALHNHYTQKSLSLSPGK
For B2, the “Activity” value was 3.7 pM.

B3: 309_02_F01 (bispecific antibody)
chain: DIQLTQTPASLAVSLGQRATISCKASQSVDYDGDSYLNWYQQIPGQPPKLLIYDASNLVSGIPPRFSGSGSGTDFTLNIHPVEKVDAATYHCQQSTEDPWTFGGGTKLEIKGGSGGAMAEVQLVQSGAEVKKPGASVKVSCKASGYTFTGYYMHWVRQAPGQGLEWMGWINPNSGGTNYAQKFQGRVTMTRDTSISTAYMELSSLRSEDTAVYYCARDKRYSSGWYENWGQGTLVTVSSGGGGSGGGGSGGGASNFMLTQPHSVSESPGKTVTISCTRSSGSIASKYVQWYQQRPGSSPTTVIYEDNQRPSGVPDRFSGSIDISSNSASLTISGLKTEDEADYFCQSYDSSSVIFGGGTKLTVLGQPAAAGGGGSQVQLQQSGAELVRPGSSVKISCKASGYAFSSYWMNWVKQRPGQGLEWIGQIWPGDGDTNYNGKFKGKATLTADESSSTAYMQLSSLASEDSAVYFCARRETTTVGRYYYAMDYWGQGTSVTVSSASAAVECPPCPAPPVAGPSVFLFPPKPKDTLMISRTPEVTCVVVDVSHEDPEVQFNWYVDGVEVHNAKTKPREEQFNSTFRVVSVLTVVHQDWLNGKEYKCKVSNKGLPAPIEKTISKTKGQPREPQVYTLPPSREEMTKNQVSLTCLVKGFYPSDIAVEWESNGQPENNYKTTPPMLDSDGSFFLYSKLTVDKSRWQQGNVFSCSVMHEALHNHYTQKSLSLSPGK
B3 was tested, and the “Activity” value was 32.2 pM.

B4: 400_01_D06 (bispecific antibody)
chain: DIQLTQTPASLAVSLGQRATISCKASQSVDYDGDSYLNWYQQIPGQPPKLLIYDASNLVSGIPPRFSGSGSGTDFTLNIHPVEKVDAATYHCQQSTEDPWTFGGGTKLEIKGGSGGAMAQVQLVQSGAEVKKPGSSVKVSCKASGGTFSSYAISWVRQAPGQGLEWMGGIIPIFGTANYAQKFQGRVTITADESTSTAYMEVRSLRSDDTAVYYCVRDRGDYGDITYFDYWGQGTLVTVSSGGGGSGGGGSGGGASNFMLTQPHSVSESPGKTVTISCTGSSGSIASNYVQWYQQRPGSAPTIVIYEDNHRPSGVPDRFSGSIDSSSNSASLTISGLKTEDEADYYCQSYDSSDRVVFGGGTKVTVLGQPAAAGGGGSQVQLQQSGAELVRPGSSVKISCKASGYAFSSYWMNWVKQRPGQGLEWIGQIWPGDGDTNYNGKFKGKATLTADESSSTAYMQLSSLASEDSAVYFCARRETTTVGRYYYAMDYWGQGTSVTVSSASAAVECPPCPAPPVAGPSVFLFPPKPKDTLMISRTPEVTCVVVDVSHEDPEVQFNWYVDGVEVHNAKTKPREEQFNSTFRVVSVLTVVHQDWLNGKEYKCKVSNKGLPAPIEKTISKTKGQPREPQVYTLPPSREEMTKNQVSLTCLVKGFYPSDIAVEWESNGQPENNYKTTPPMLDSDGSFFLYSKLTVDKSRWQQGNVFSCSVMHEALHNHYTQKSLSLSPGK
For B4, the “Activity” value was 17.5 pM.
